How the values were obtained:
[1] = test system: dopamine neurons; assay: Survival of TH-positive dopamine neurons in dissociated midbrain floor cultures; format: cell-based, mouse; conditions: for survived neurons as % compared to neurons grown in the presence of GDNF: Table 3A (FIG. 15); for survived neurons as % compared to neurons grown in the presence of GDNF / protection of dopaminergic neurons in culture (result in words): 5 days; for Fold change of survived neurons compared to neurons grown without growth factors: data of Table 3 divided by values of no factor; for protection of dopaminergic neurons in culture (result in words): added to the culture medium, TH-positive neurons counted
Summary of the method: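 Dissociated E13.5 NMRI mouse midbrain floor neurons grown five days in DMEM/F12 with N2, with polypeptides at a range of concentrations, GDNF (100 ng/ml), or nothing. TH-immunopositive neurons were counted by imaging. Values are a percentage of GDNF-maintained TH-positive neurons, as mean ± SEM from at least three independent cultures.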

[2] = test system: ER stressed SCG neurons; assay: Survival of tunicamycin-treated (ER stressed) SCG sympathetic neurons after microinjection; format: cell-based, mice; conditions: for survived neurons as % compared to neurons grown in the presence of NGF: Table 1A (FIG. 14), microinjected into cytoplasm, CDNF (400); for Fold change of survived neurons compared to neurons injected with PBS: data of Table 1 divided by values of PBS
Summary of the method: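 Newborn mouse SCG neurons grown 5-6 days with 30 ng/ml NGF, then microinjected with CDNF (FL or C-terminal) plasmids (10 ng/ul, EGFP reporter) or proteins (200 ng/ul, Dextran Texas Red). Tunicamycin (2 μM) added next day. Fluorescent survivors counted blindly after 3 days as % of initial; compared with vector or PBS (ANOVA/Dunnett).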

B1: KYEKTLDLASVDLRKMRVAELKQILHSWGEECRACAEKTDYVNLIQELAPKYAATHPKTEL (peptide, listed as Homo sapiens)
chain: KYEKTLDLASVDLRKMRVAELKQILHSWGEECRACAEKTDYVNLIQELAPKYAATHPKTEL
With B1 the “survived neurons as % compared to neurons grown in the presence of GDNF” value (shortened to “survived neurons as % … of GDNF”) ([1]; AVG, 1 ng/ml) was 63.97 % GDNF, the “survived neurons as % … of GDNF” value ([1]; AVG, 10 ng/ml) was 80.69 % GDNF and the “survived neurons as % … of GDNF” value ([1]; AVG, 100 ng/ml) was 77.02 % GDNF. The “survived neurons as % … of GDNF” value ([1]; AVG, 1000 ng/ml) was 70.02 % GDNF, the “survived neurons as % … of GDNF” value ([1]; exp1, 1 ng/ml) was 62.96 % GDNF and the “survived neurons as % … of GDNF” value ([1]; exp1, 10 ng/ml) was 81.68 % GDNF. The “survived neurons as % … of GDNF” value ([1]; exp1, 100 ng/ml) was 91.48 % GDNF, the “survived neurons as % … of GDNF” value ([1]; exp1, 1000 ng/ml) was 75.02 % GDNF and the “survived neurons as % … of GDNF” value ([1]; exp2, 1 ng/ml) was 67.36 % GDNF. For the same molecule, the “survived neurons as % … of GDNF” value ([1]; exp2, 10 ng/ml) was 80.97 % GDNF, the “survived neurons as % … of GDNF” value ([1]; exp2, 100 ng/ml) was 65.28 % GDNF and the “survived neurons as % … of GDNF” value ([1]; exp2, 1000 ng/ml) was 61.07 % GDNF. The “survived neurons as % … of GDNF” value ([1]; exp3, 1 ng/ml) was 61.59 % GDNF, the “survived neurons as % … of GDNF” value ([1]; exp3, 10 ng/ml) was 79.42 % GDNF and the “survived neurons as % … of GDNF” value ([1]; exp3, 100 ng/ml) was 74.30 % GDNF. For the same molecule, the “survived neurons as % … of GDNF” value ([1]; exp3, 1000 ng/ml) was 73.98 % GDNF, the “Fold change of survived neurons compared to neurons grown without growth factors” value ([1]; Table 4, AVG, 1 ng/ml) was 1.04 fold and the “Fold change of survived neurons compared to neurons grown without growth factors” value ([1]; Table 4, AVG, 10 ng/ml) was 1.31 fold. For the same molecule, the “Fold change of survived neurons compared to neurons grown without growth factors” value ([1]; Table 4, AVG, 100 ng/ml) was 1.26 fold, the “Fold change of survived neurons compared to neurons grown without growth factors” value ([1]; Table 4, AVG, 1000 ng/ml) was 1.14 fold and the “Fold change of survived neurons compared to neurons grown without growth factors” value ([1]; Table 4, exp1, 1 ng/ml) was 1.10 fold. The “Fold change of survived neurons compared to neurons grown without growth factors” value ([1]; Table 4, exp1, 10 ng/ml) was 1.43 fold, the “Fold change of survived neurons compared to neurons grown without growth factors” value ([1]; Table 4, exp1, 100 ng/ml) was 1.60 fold and the “Fold change of survived neurons compared to neurons grown without growth factors” value ([1]; Table 4, exp1, 1000 ng/ml) was 1.31 fold. For the same molecule, the “Fold change of survived neurons compared to neurons grown without growth factors” value ([1]; Table 4, exp2, 1 ng/ml) was 1.07 fold, the “Fold change of survived neurons compared to neurons grown without growth factors” value ([1]; Table 4, exp2, 10 ng/ml) was 1.28 fold and the “Fold change of survived neurons compared to neurons grown without growth factors” value ([1]; Table 4, exp2, 100 ng/ml) was 1.04 fold. For the same molecule, the “Fold change of survived neurons compared to neurons grown without growth factors” value ([1]; Table 4, exp2, 1000 ng/ml) was 0.97 fold, the “Fold change of survived neurons compared to neurons grown without growth factors” value ([1]; Table 4, exp3, 1 ng/ml) was 0.95 fold and the “Fold change of survived neurons compared to neurons grown without growth factors” value ([1]; Table 4, exp3, 10 ng/ml) was 1.23 fold. The “Fold change of survived neurons compared to neurons grown without growth factors” value ([1]; Table 4, exp3, 100 ng/ml) was 1.15 fold, the “Fold change of survived neurons compared to neurons grown without growth factors” value ([1]; Table 4, exp3, 1000 ng/ml) was 1.14 fold and the “protection of dopaminergic neurons in culture (result in words)” value [1] was “protects”. The “protection of dopaminergic neurons in culture (result in words)” value ([1]; listed as C-terminal CDNF fragment) was “potently protected”, the “survived neurons as % compared to neurons grown in the presence of NGF” value (“survived neurons as % … of NGF” below) ([2]; AVG of exp1-2, tunicamycin 2 μM) was 84.37 % NGF and the “survived neurons as % … of NGF” value ([2]; exp1, tunicamycin 2 μM, counted after 3 days) was 78.87 % NGF. The “survived neurons as % … of NGF” value ([2]; exp2, tunicamycin 2 μM, counted after 3 days) was 89.87 % NGF, the “Fold change of survived neurons compared to neurons injected with PBS” value (from here on “Fold change of survived neurons … with PBS”) ([2]; Table 2, AVG) was 2.28 Fold to PBS and the “Fold change of survived neurons … with PBS” value ([2]; Table 2, exp1) was 2.30 Fold to PBS. For the same molecule, the “Fold change of survived neurons … with PBS” value ([2]; Table 2, exp2) was 2.26 Fold to PBS, the “rescue of ER stressed SCG sympathetic neurons (result in words)” value ([2]; expressed from microinjected plasmids, tunicamycin 2 μM, living fluorescent neurons counted after three days) was “rescue” and the “rescue of ER stressed SCG neurons (result in words)” value ([2]; protein or peptide microinjected into the cytoplasm, tunicamycin 2 μM, living fluorescent neurons counted after 3 days) was “rescue”.

Reference: US12479895B2, “C-terminal CDNF and MANF fragments, pharmaceutical compositions comprising same and uses thereof” (MyNeuroCure Oy, priority 2018, dated 2025)
